Experimental findings from patent US20250361282A1 (Bayer, published 2025) are described below.

“And” between values parts separate entries of the source, which are not always exact repeats. Equal values may be shown once.

The target in assay [1] is T1, human NPRA (human, UniProt P16066 33-1061).
T1 sequence (looked up): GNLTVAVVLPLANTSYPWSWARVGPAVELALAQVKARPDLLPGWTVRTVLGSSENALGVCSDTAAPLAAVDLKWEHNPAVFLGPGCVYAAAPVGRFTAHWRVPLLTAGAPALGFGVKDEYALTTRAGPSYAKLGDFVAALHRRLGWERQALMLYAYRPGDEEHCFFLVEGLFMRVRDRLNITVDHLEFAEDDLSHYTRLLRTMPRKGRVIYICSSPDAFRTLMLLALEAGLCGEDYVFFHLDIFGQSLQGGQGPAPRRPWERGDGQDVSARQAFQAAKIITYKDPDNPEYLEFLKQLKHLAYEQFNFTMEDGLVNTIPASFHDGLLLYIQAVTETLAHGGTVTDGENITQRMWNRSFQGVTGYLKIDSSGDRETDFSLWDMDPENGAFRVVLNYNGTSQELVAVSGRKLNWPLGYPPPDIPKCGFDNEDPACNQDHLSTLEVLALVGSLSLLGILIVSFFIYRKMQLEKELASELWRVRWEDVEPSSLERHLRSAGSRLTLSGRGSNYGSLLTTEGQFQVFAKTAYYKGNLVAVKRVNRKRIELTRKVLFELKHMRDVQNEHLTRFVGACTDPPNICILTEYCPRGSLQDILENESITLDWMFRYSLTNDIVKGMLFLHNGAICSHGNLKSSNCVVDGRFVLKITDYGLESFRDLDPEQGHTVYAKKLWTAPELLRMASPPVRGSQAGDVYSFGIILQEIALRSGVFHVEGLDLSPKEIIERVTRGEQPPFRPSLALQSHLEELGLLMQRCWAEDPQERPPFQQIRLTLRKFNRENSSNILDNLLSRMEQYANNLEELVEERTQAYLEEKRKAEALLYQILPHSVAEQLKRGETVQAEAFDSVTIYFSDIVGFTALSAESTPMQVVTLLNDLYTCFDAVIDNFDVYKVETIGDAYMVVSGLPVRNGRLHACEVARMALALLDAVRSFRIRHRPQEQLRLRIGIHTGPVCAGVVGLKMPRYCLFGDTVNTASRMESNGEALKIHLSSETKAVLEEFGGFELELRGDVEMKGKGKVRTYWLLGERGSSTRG
Kind of assay: cell-based or functional assay.

The target in assay [2] is T2, human NPRA (human, UniProt P16066 33-1061).
T2 sequence (looked up): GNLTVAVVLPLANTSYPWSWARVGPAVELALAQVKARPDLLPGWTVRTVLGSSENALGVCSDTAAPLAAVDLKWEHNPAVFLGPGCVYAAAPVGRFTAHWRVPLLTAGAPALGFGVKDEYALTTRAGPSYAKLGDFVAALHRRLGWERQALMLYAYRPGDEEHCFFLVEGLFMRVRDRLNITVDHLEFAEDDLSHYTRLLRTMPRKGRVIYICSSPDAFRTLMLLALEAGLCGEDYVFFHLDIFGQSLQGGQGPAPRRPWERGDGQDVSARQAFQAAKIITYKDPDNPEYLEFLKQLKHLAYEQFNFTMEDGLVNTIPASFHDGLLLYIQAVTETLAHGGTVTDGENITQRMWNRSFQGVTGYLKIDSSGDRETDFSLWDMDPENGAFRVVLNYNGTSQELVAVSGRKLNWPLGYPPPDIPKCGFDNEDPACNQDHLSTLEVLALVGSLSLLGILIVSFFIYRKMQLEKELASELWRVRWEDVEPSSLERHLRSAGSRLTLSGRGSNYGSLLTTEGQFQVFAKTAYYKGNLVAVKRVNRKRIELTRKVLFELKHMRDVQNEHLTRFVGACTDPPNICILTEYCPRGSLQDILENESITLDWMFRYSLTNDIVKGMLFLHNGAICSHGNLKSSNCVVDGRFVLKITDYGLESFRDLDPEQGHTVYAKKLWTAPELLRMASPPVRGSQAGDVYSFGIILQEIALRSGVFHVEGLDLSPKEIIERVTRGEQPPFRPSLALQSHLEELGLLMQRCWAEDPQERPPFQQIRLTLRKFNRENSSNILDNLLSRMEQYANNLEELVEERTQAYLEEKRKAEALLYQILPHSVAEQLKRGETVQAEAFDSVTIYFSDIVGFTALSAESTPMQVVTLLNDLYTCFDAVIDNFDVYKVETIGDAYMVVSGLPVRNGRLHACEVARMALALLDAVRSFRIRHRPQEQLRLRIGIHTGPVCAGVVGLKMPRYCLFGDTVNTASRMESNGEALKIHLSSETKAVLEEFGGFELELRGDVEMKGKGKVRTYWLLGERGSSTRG
Kind of assay: cell-based or functional assay. The source holds these as a separate data set.

B1: TPP-10361 (antibody, human IgG1, lambda)
heavy: not shown
light: QSVLTQPPSVSGAPGQRVTISCTGSSSNIGAGYDVHWYQQLPGTAPKLLIYGSGSGSGSGSGSPDGGSGGSLRRSSCFGGRMDRIGAQSGLGCNSFRYGSYGSGGSGSGSGNRPSGVPDRFSGSKSGTSASLAITGLQAEDEADYYCQSYDSSLSGVVFGGGTKLTVLGQPKAAPSVTLFPPSSEELQANKATLVCLISDFYPGAVTVAWKADSSPVKAGVETTTPSKQSNNKYAASSYLSLTPEQWKSHRSYSCQVTHEGSTVEKTVAPTECS
Regarding B1, in the assay with human NPRA [1], the activity rcs came out at 20%, the “average rel logEC50” value was -0.1 delta logEC50 vs TPP-5661, the rel. activity rcs is -0.1 delta logEC50 vs TPP-5661 and the “rel. logEC50 pcs 5” value was -0.1 delta logEC50 vs TPP-5661.

B2: TPP-10294 (antibody, human IgG1, lambda)
heavy: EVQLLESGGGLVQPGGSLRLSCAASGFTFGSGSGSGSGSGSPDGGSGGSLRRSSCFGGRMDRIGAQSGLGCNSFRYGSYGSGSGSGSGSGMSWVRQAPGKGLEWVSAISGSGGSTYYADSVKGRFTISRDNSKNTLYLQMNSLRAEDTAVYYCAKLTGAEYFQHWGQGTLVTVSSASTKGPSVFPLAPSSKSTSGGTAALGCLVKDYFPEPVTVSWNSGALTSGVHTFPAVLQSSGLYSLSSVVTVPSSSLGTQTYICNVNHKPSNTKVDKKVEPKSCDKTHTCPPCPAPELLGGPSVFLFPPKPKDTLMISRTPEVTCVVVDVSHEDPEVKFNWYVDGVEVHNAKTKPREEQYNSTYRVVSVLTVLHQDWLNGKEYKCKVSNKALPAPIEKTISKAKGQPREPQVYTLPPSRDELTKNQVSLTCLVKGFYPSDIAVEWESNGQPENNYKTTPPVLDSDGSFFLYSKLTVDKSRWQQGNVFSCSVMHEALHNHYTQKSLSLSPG
light: QSVLTQPPSVSGAPGQRVTISCTGSSSNIGAGYDVHWYQQLPGTAPKLLIYGNSNRPSGVPDRFSGSKSGTSASLAITGLQAEDEADYYCQSYDSSLSGVVFGGGTKLTVLGQPKAAPSVTLFPPSSEELQANKATLVCLISDFYPGAVTVAWKADSSPVKAGVETTTPSKQSNNKYAASSYLSLTPEQWKSHRSYSCQVTHEGSTVEKTVAPTECS
On to B2, for which, in the assay with human NPRA [2], the “activity rcs (cGMP, hNPRA-CHO k1)” value is 41%; the “average rel logEC50 (vs TPP-5661)” value was -0.3; the “rel. logEC50* pcs (vs TPP-5661, hNPRA-HEK293)” value was -0.5 and -0.6 and -0.4; the “rel. logEC50 pcs 4 (vs TPP-5661, hNPRA-CHO k1)” value was -0.2. In addition, in the assay with human NPRA [2], the “rel. logEC50 pcs 7 (vs TPP-5661, hNPRA-CHO k1)” value was found to be 0.

B3: TPP-10282 (antibody, human IgG1, lambda)
heavy: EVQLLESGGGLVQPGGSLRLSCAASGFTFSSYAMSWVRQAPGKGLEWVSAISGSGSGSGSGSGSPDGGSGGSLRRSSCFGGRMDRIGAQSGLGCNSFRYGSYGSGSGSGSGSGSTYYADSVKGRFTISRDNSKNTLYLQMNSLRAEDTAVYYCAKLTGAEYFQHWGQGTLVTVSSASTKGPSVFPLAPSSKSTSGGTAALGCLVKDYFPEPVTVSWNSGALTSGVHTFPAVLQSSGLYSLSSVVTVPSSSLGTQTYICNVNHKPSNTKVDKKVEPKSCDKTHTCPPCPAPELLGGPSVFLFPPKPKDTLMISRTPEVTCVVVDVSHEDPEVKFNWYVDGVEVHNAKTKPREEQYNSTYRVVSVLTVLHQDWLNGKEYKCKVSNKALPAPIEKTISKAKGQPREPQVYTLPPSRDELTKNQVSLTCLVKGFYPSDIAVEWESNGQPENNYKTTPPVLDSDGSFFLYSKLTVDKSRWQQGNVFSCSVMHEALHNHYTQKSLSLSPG
light: QSVLTQPPSVSGAPGQRVTISCTGSSSNIGAGYDVHWYQQLPGTAPKLLIYGNSNRPSGVPDRFSGSKSGTSASLAITGLQAEDEADYYCQSYDSSLSGVVFGGGTKLTVLGQPKAAPSVTLFPPSSEELQANKATLVCLISDFYPGAVTVAWKADSSPVKAGVETTTPSKQSNNKYAASSYLSLTPEQWKSHRSYSCQVTHEGSTVEKTVAPTECS
As to B3, in the assay with human NPRA [2], the “activity rcs (cGMP, hNPRA-CHO k1)” value was 30%; the “average rel logEC50 (vs TPP-5661)” value amounted to 0.1; the “rel. activity rcs (delta logEC50 vs TPP-5661, hNPRA-CHO k1)” value is 0.3; the “rel. logEC50 pcs 1 (vs TPP-5661, hNPRA-CHO k1)” value was 0.3. Moreover, in the assay with human NPRA [2], the “rel. logEC50 pcs 2 (vs TPP-5661, hNPRA-CHO k1)” value was -0.2; the “rel. logEC50 pcs 4 (vs TPP-5661, hNPRA-CHO k1)” value is 0.1; the “rel. logEC50 pcs 5 (vs TPP-5661, hNPRA-CHO k1)” value is 0.2.

B4: TPP-10845 (antibody, human IgG1, lambda)
heavy: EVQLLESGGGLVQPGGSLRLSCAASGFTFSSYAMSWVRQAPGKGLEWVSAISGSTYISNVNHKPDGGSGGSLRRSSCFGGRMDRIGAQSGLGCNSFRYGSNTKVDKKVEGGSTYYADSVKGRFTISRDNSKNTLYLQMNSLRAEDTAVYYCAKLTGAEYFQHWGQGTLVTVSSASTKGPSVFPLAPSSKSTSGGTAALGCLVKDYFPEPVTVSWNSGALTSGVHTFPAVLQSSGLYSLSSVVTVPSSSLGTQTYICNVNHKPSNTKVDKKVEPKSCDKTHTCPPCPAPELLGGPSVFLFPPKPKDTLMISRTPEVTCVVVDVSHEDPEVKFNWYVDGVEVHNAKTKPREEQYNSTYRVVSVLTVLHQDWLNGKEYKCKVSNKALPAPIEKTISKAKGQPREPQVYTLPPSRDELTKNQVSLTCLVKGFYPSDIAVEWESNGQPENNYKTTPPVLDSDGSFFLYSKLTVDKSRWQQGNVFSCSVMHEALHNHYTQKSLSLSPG
light: QSVLTQPPSVSGAPGQRVTISCTGSSSNIGAGYDVHWYQQLPGTAPKLLIYGNSNRPSGVPDRFSGSKSGTSASLAITGLQAEDEADYYCQSYDSSLSGVVFGGGTKLTVLGQPKAAPSVTLFPPSSEELQANKATLVCLISDFYPGAVTVAWKADSSPVKAGVETTTPSKQSNNKYAASSYLSLTPEQWKSHRSYSCQVTHEGSTVEKTVAPTECS
In the case of B4, in the assay with human NPRA [2], the “activity rcs (cGMP, hNPRA-CHO k1)” value came out at 67%; the “average rel logEC50 (vs TPP-5661)” value was -0.6; the “rel. logEC50 pcs 5 (vs TPP-5661, hNPRA-CHO k1)” value was -0.4; the “rel. logEC50 pcs 6 (vs TPP-5661, hNPRA-CHO k1)” value was -0.8.

B5: TPP-13054 (antibody, human IgG1, lambda)
heavy: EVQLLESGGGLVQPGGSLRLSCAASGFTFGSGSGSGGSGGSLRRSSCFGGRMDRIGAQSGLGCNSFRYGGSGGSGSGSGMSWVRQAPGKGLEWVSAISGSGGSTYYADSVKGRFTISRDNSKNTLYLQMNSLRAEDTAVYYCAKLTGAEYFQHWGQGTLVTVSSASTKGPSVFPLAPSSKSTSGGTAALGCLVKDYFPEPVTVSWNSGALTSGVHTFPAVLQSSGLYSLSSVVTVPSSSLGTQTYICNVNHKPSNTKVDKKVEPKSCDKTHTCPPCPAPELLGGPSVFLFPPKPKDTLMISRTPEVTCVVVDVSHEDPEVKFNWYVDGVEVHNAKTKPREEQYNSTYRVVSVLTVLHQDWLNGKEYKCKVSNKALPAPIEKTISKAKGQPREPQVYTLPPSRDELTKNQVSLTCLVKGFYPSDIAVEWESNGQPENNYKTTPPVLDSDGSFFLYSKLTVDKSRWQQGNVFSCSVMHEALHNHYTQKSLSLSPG
light: QSVLTQPPSVSGAPGQRVTISCTGSSSNIGAGYDVHWYQQLPGTAPKLLIYGNSNRPSGVPDRFSGSKSGTSASLAITGLQAEDEADYYCQSYDSSLSGVVFGGGTKLTVLGQPKAAPSVTLFPPSSEELQANKATLVCLISDFYPGAVTVAWKADSSPVKAGVETTTPSKQSNNKYAASSYLSLTPEQWKSHRSYSCQVTHEGSTVEKTVAPTECS
Regarding B5, in the assay with human NPRA [2], the “average rel logEC50 (vs TPP-5661)” value was -0.8; the “rel. logEC50* pcs (vs TPP-5661, hNPRA-HEK293)” value was -0.7 and -0.8.

B6: TPP-10283 (antibody, human IgG1, lambda)
heavy: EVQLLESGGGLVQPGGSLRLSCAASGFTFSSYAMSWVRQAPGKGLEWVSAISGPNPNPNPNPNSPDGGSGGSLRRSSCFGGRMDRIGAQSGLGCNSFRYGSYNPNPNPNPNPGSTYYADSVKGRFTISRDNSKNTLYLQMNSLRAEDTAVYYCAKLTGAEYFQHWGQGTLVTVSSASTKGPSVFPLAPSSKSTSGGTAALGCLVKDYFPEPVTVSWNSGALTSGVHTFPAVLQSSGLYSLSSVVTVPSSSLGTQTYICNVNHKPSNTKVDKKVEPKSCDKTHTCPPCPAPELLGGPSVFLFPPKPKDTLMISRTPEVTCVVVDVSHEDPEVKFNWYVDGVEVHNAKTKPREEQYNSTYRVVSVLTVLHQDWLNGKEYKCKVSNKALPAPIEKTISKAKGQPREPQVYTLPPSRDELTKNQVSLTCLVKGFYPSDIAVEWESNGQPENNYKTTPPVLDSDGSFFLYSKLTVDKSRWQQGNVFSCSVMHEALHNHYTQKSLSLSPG
light: QSVLTQPPSVSGAPGQRVTISCTGSSSNIGAGYDVHWYQQLPGTAPKLLIYGNSNRPSGVPDRFSGSKSGTSASLAITGLQAEDEADYYCQSYDSSLSGVVFGGGTKLTVLGQPKAAPSVTLFPPSSEELQANKATLVCLISDFYPGAVTVAWKADSSPVKAGVETTTPSKQSNNKYAASSYLSLTPEQWKSHRSYSCQVTHEGSTVEKTVAPTECS
As for B6, in the assay with human NPRA [2], the “activity rcs (cGMP, hNPRA-CHO k1)” value turned out to be 83%; the “average rel logEC50 (vs TPP-5661)” value is -0.8; the “rel. activity rcs (delta logEC50 vs TPP-5661, hNPRA-CHO k1)” value is -0.8; the “rel. logEC50 pcs 5 (vs TPP-5661, hNPRA-CHO k1)” value was -0.8.
